Test [1] deals with T1, recombinant soluble human IL-6 receptor (SR344) (human, UniProt P08887 20-344).
T1 construct: In the membrane-type IL-6 receptor assays the same protein was biotinylated and immobilised on the sensor chip via streptavidin, as stated under assay; also called soluble IL-6 receptor; membrane-type IL-6 receptor (as biotinylated SR344 immobilised on the chip)
T1 sequence (looked up): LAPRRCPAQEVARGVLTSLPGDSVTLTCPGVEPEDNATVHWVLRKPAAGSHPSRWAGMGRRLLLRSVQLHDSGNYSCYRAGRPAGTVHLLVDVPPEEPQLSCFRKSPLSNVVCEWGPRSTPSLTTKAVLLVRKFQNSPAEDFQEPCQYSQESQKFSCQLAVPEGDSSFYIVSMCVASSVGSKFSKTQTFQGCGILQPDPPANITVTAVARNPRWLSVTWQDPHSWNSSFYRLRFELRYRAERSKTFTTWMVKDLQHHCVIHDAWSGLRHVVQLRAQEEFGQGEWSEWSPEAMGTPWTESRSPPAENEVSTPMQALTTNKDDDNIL
As to the kind of experiment: SPR Biacore T100, 37C; antibody captured on protein A/G chip, SR344 analyte; pH 5.8 vs pH 7.4. The method, then: Kinetic analyses of antigen-antibody reactions at pH 5.8 and pH 7.4 were carried out using a Biacore™ T100 surface plasmon resonance system (GE Healthcare) on the four antibodies: humanized PM1 antibody (WT) and H3pI/L73, CLH5/L73, and H170/L82 produced in Examples 2 and 4 (buffer: 10 mM MES (pH 7.4 or pH 5.8), 150 mM NaCl, and 0.05% TWEEN® 20 (polyoxyethelene sorbitan monolaurate)). Various antibodies were bound onto a sensor chip immobilized with recomb-protein A/G (Pierce) by amine coupling. SR344 adjusted to concentrations of 9.8 to 400 nM was injected to the chip as an analyte. […] All the measurements were carried out at 37° C. Association rate constants kₐ (1/Ms) and dissociation rate constants kd (1/s) were calculated using Biacore T100™ Evaluation Software (GE Healthcare), and dissociation constants KD (M) were calculated on the basis of those values (Table 5). Moreover, the ratio of the affinities at pH 5.8 and pH 7.4 were calculated for each clone to evaluate pH-dependent binding. All the measurements were carried out at 37° C.

The target in test [2] is T2, soluble mouse IL-31 receptor (mouse, UniProt Q8K5B1 19-499).
T2 construct: Soluble form
T2 sequence (looked up): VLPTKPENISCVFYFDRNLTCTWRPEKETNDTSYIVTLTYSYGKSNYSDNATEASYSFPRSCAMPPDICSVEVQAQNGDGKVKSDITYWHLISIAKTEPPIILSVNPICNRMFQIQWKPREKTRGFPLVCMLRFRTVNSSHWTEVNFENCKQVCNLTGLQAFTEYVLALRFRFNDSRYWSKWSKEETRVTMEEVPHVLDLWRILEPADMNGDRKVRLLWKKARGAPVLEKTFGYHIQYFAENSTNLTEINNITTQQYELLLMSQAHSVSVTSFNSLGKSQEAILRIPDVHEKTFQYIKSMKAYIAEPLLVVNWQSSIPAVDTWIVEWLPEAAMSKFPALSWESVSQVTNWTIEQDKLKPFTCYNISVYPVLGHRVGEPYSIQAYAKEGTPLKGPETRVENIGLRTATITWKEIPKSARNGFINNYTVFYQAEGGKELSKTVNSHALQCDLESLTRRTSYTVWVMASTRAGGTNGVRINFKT
As to the kind of experiment: SPR Biacore T100, 25C, pH 5.5; antibody captured on protein A/G chip, soluble mouse IL-31 receptor analyte; pH 5.5. The method, then:
Kinetic analysis of antigen-antibody reactions at pH 5.5 and pH 7.4 was carried out using a Biacore T100™ surface plasmon resonance system (GE Healthcare) for the two types of antibodies prepared as mentioned above: Anti-IL31R wild type and Anti-IL31R clone 1 (buffer: DPBS(−) (pH 7.4 or pH 5.5), 150 mM NaCl, 0.01% TWEEN® 20 (polyoxyethelene sorbitan monolaurate), 0.02% NaN₃). The antibodies were bound to a sensor chip on which recomb-protein A/G (Pierce) was immobilized by amine coupling, and then the soluble mouse IL-31 receptor (prepared according to the method described in WO 2007/142325) adjusted to an appropriate concentration was injected therein as an analyte. All the measurements were carried out at 25° C. Association rate constants kₐ (1/Ms) and dissociation rate constants kd (1/s) were calculated using Biacore T100™ Evaluation Software (GE Healthcare), and dissociation constants KD (M) were calculated based on those values (Table 16). Furthermore, the ratio of affinity at pH 5.5 and pH 7.4 was calculated for each clone to evaluate the pH-dependent binding.

B1: H3pI/L73 (antibody, IgG1, V domains shown)
VH: QVQLQESGPGLVKPSETLSLTCAVSGHSISHDHAHSWVRQPPGEGLEWIGYISYSGITNYNPSLKGRVTISRDTSKNQFSLKLSSVTAADTAAYYCARSLARTTAMDYWGEGTLVTVSS
VL: DIQMTQSPSSLSASVGDSVTITCQASQHISSHLNWYQQKPGKAPELLIYYGSHLHSGVPSRFSGSGSGTDFTFTISSLEAEDAATYYCGQGNRLPYTFGQGTKVEIE
notes: Tested as IgG1; also called H3pI/L73-IgG1; H3pl/L73
As to B1, the “affinity ratio between pH 5.8 and pH 7.4” value in test [1] worked out at 41 fold.

B2: H170/L82 (antibody, IgG1, V domains shown)
VH: QVQLQESGPGLVKPSETLSLTCAVSGHSISHHHAHSWVRQPPGEGLEWIGYISYSGITHYNPHLKGRVTISRDTSKNQFSLKLSSVTAADTAAYYCARVLARITAMDHWGEGTLVTVSS
VL: DIQMTQSPSSLSASVGDSVTITCQASQDISSHLNWYQQKPGKAPELLIYYGSHLHSGVPSRFSGSGSGTDFTFTISSLEAEDAATYYCGQGNRLPYTFGQGTKVEIE
notes: Tested as IgG1; also called H170/L82-IgG1
For the molecule B2, the “affinity ratio between pH 5.8 and pH 7.4” value in test [1] amounted to 394 fold.

B3: CLH5/L73 (antibody, IgG1, V domains shown)
VH: QVQLQESGPGLVKPSETLSLTCAVSGYSISHDHAWSWVRQPPGEGLEWIGHISYSGITNYNPHLKGRVTISRDTSKNQFSLKLSSVTAADTAAYYCARFLARITAHDHWGEGTLVTVSS
VL: DIQMTQSPSSLSASVGDSVTITCQASQHISSHLNWYQQKPGKAPELLIYYGSHLHSGVPSRFSGSGSGTDFTFTISSLEAEDAATYYCGQGNRLPYTFGQGTKVEIE
notes: Expressed and purified as IgG
Consider B3, for which, in test [1], the “affinity ratio between pH 5.8 and pH 7.4” value came out at 66 fold.

B4: Anti-IL31R wild type (antibody, human IgG1, lambda, V domains shown)
VH: not shown
VL: LPVLTQPPSVSVAPGQTARITCGGNNIGSKTVYWYQQEPGQAPVLVVYDDTDRPAGIPERFSGANSGNTATLTISRVEAGDEADYYCQVWDSSTDHGVFGGGTKLTVLG
notes: Antibody described in WO 2007/142325; also called anti-IL-31 receptor antibody H chain (WT)/L chain (WT)
Take B4: the association rate constant (kon) in test [2] came to 51000 M⁻¹ s⁻¹.
